The target of assay [1] is T1, human B7RP1-Fc fusion protein (human, UniProt O75144 19-256, limits assumed).
T1 construct: also called hB7RP-1-Fc; hB7RP1Fc; not shown: Fc part
T1 sequence (looked up): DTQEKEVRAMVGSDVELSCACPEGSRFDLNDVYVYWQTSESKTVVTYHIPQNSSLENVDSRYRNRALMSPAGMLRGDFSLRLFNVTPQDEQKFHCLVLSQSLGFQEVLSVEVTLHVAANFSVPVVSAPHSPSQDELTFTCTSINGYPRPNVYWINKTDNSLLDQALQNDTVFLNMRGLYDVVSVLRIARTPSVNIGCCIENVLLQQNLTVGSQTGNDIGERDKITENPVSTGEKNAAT
Kind of assay: Biacore Fc column of Table 4. In general terms: SPR reads the build-up and loss of mass on a sensor chip optically.

Assay [2] has as its target T2, human B7RP-1 Ig2 (IgC-like) domain fused to chicken avidin (human; chicken, UniProt O75144 120-246).
T2 construct: Order of the parts not certain ('N-terminal, in-frame fusions with chicken avidin'); also called Ig2 domain; membrane-proximal Ig2 domain; not shown: chicken avidin
T2 sequence: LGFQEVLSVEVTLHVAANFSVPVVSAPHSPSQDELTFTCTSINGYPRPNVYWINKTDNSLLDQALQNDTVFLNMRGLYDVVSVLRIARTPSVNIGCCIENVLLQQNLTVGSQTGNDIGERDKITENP
Kind of assay: avidin fusion on biotin-coated beads, fluorescently labeled ICOS-Fc, flow cytometry. The method, then: (§1) Experiments were conducted to identify the region on B7RP-1 to which the 16H/16Hg and 5D monoclonal antibodies bind. To do this a novel Fluorescence-Activated Cell Sorter (FACS) binding assay was developed. The human extracellular domain (ECD) of B7RP1 (SEQ ID NO: 66) as well as truncated forms of B7RP-1 containing either the Ig1 (IgV-like; SEQ ID NO: 67) or the Ig2 (IgC-like; SEQ ID NO: 68) were expressed as N-terminal, in-frame fusions with chicken avidin.
(§2) Expression vectors containing genes encoding these fusion proteins were individually transiently transfected into 293T cells and the conditioned media from these cell lines were used as the source of fusion protein. The avidin-tag was used to capture the B7R-1 fusion proteins from solution using a biotin-coated bead. Fusion proteins were incubated with either fluorescently-labeled 16H or 5D mAbs or a fluorescently-labeled ICOS-Fc fusion protein, and incubated with biotin-coated beads The beads were recovered and analyzed using flow cytometry on a Becton-Dickinson Bioscience FACScan (BD, Franklin Lakes, N.J.). […] Thus, the ICOS, 16H, and 5D binding regions on B7RP-1 were located in the Ig1 domain
In general terms: Flow cytometry measures light scatter and fluorescence of single cells or particles in a stream.

Assay [3] has as its target T3, full-length human B7RP-1 on cells (human, UniProt O75144 19-302).
T3 sequence (looked up): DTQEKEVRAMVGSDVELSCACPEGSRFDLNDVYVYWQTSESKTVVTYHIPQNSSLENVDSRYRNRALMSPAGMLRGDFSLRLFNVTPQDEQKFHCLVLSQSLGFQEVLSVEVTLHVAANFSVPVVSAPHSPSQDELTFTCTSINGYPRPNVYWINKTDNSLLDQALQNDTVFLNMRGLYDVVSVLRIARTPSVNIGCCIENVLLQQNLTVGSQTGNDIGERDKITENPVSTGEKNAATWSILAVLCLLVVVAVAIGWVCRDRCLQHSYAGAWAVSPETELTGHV
The assay can be described thus: cell-based or functional assay.

Assay [4] has as its target T1, human B7RP1-Fc fusion protein. The assay can be described thus: Biacore Fc column of Table 4 (same value as Table 3). The protocol: (§3) A fixed concentration of mAb was then incubated with varying concentrations of B7RP-1 or B7RP1-Fc for at least eight hours at room temperature to allow them to reach equilibrium. The samples were then injected over the B7RP1-Fc surface, and the binding signal observed represented free antibody remaining in solution at equilibrium.

In assay [5] the target is T4, soluble recombinant human B7RP-1 (human, UniProt O75144 19-256, limits assumed).
T4 construct: also called hB7RP-1; soluble B7RP-1
T4 sequence (looked up): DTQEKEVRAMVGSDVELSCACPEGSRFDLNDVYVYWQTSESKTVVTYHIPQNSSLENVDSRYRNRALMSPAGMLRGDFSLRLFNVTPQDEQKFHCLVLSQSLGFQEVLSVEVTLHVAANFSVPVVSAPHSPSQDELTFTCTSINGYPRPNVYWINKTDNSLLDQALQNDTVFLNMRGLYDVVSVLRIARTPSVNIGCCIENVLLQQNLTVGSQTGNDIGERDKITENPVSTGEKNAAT
The assay can be described thus: Biacore mono column of Table 4 (same value as Table 3). The method, then: as §3

Assay [6] has as its target T2, human B7RP-1 Ig2 (IgC-like) domain …. The assay can be described thus: avidin fusion on biotin-coated beads, fluorescently labeled 16H, flow cytometry. The method, then: as §2
Assay [7] deals with T1, human B7RP1-Fc fusion protein. Kind of assay: Biacore solution equilibrium: mAb pre-incubated with B7RP1-Fc, free mAb read on immobilized B7RP1-Fc. The method, then:
as §3

The target is the same in assay [8]. The assay can be described thus: cell-based or functional assay.
The target of assay [9] is T4, soluble recombinant human B7RP-1. The assay can be described thus: Biacore solution equilibrium: mAb pre-incubated with soluble B7RP-1, free mAb read on immobilized B7RP1-Fc. The protocol:
as §3

For assay [10] the target is unchanged. Kind of assay: KinExA, dual-curve fit at [Ab] 100 pM and 300 pM, hB7RP-1 titrated in solution. The method, then:
(§4) Binding of 5D, 2H, and 2H germline antibodies was also tested using KinExA (kinetic exclusion assay) technology. In this assay, hB7RP-1 was coupled to agarose beads. The beads were used to create a bead column. Samples containing antibody at a fixed concentration, which were allowed to come to equilibrium with varying concentrations of hB7RP-1, were then passed over the bead column. Antibody not complexed with ligand bound to the coated beads.
(§5) A fluorescent tagged anti-human Fc secondary antibody was used to detect bound test antibody.
On the technique in general: A kinetic exclusion assay measures how much of one partner remains free in solution.

Assay [11] deals with T2, human B7RP-1 Ig2 (IgC-like) domain …. The assay can be described thus: flow cytometry of biotin-coated beads capturing the avidin fusion protein, stained with fluorescently labelled antibody.
Assay [12] has as its target T4, soluble recombinant human B7RP-1. The assay can be described thus: KinExA, hB7RP-1 on agarose beads, antibody equilibrated with hB7RP-1 in solution. The method, then:
as §4, §5

Assay [13] addresses T2, human B7RP-1 Ig2 (IgC-like) domain …. The assay can be described thus: avidin fusion on biotin-coated beads, fluorescently labeled 5D, flow cytometry. The method, then: as §1, §2

B1: ICOS-Fc fusion protein (Fc fusion, UniProt Q9Y6W8 21-140, looked up)
chain: EINGSANYEMFIFHNGGVQILCKYPDIVQQFKMQLLKGGQILCDLTKTKGSGNTVSIKSLKFCHSQLSNNSVSFFLYNLDHSHANYYFCNLSIFDPPPFKVTLTGGYLHIYESQLCCQLK
notes: Fluorescently labelled in the flow cytometry assays; also called ICOS reagent; not shown: Fc part
One may read the Kd as the constant that tells how readily two partners part at equilibrium. B1 yielded a Kd in assay [1] of 1 nM. Besides, the binding result in assay [2] is “no binding”. Besides, in assay [3], the “CHO (co-stimulation assay with hB7RP1 transfected CHO cells, T cell proliferation) EC50” value (shortened to “CHO”) worked out at 10.7 nM.

B2: anti-B7RP1 human monoclonal antibody 16H (antibody, V domains shown)
VH: EVQLVESGGGLVQPGGSLRLSCAGSGFTFSSYWMSWVRQAPGKGLEWVAYIKQDGNEKYYVDSVKGRFTISRDNAKKSLYLQMNSLRAEDTAVYYCAREGILWFGDLPTFWGQGILVTVSS
VL: DIQMTQSPSSLSASVGDRVTITCRASQGISNWLAWYQQKPEKAPKSLIYAASSLQSGVPSRFSGSGSGTDFTLTISSLQPEDFATYYCQQYDSYPRTFGQGTKVEIK
notes: Fluorescently labelled in the flow cytometry assays; also called 16H mAb; B7RP-1 16H
Take B2: the dissociation constant (Kd) in assay [4] amounted to 0.027 nM; in [5], 1.9 nM; in assay [7], 0.027 nM; in assay [9] it was 1.9 nM. Also, the binding result in [6] was “no binding”. In addition, in [8], the “Plate (co-stimulation assay, T cell proliferation) EC50” value (shortened to “Plate”) turned out to be 0.053 nM. Further, the “CHO” value in assay [3] is 0.276 nM.

B3: anti-B7RP1 human monoclonal antibody 43H (antibody, V domains shown)
VH: EVQLVQSGGGLVHPGGSLRLSCAGSGFTFSSYAMHWVRQAPGKGLEWVSAIGAGGGTYYADSVKGRFTISRDNAKNSLYLQMNSLRAEDMAVYYCARVVVVVGFFDYWGQGTLVTVSS
VL: DIQMTQSPSSLSASVGDRVTITCRASQGISSWLAWYQQKPEKAPKSLIFAASSLQSGVPSRFSGSGSGTDFTLTISSLQPEDFATYYCQQYNSYPYTFGQGTKLEIK
With B3, in assay [8], the “Plate” value turned out to be 0.046 nM.

B4: anti-B7RP1 human monoclonal antibody 2H germline (antibody, V domains shown)
VH: EVQLVESGGGLVQPGGSLRLSCAASGFTFSSYWMSWVRQAPGKGLEWVAYIKQDGSEKYYVDSVKGRFTISRDNAKNSLYLQMNSLRAEDTAVYYCARDGILWFGDIPTYWGQGTLVTVSS
VL: DIQMTQSPSSLSASVGDRVTITCRASQGISNWLAWYQQKPEKAPKSLIYTASSLQSGVPSRFSGSGSGTDFTLTISSLQPEDFATYYCQQYNSYPRTFGQGTKVEIK
For B4, the Kd in assay [10] is 0.4 nM.

B5: anti-B7RP1 human monoclonal antibody 41H (antibody, V domains shown)
VH: EVQLVESGGGLVQPGGSLRLSCAASGFTFSSYWMSWVRQAPGKGLEWVAYIKQDGSEKYYVDSVKGRFTISRDNAKNSLYLQMNSLRAEDTAVYYCARDGILWFGDLPTYWGQGTLVTVSS
VL: DIQMTQSPSSLSASVGDRVTITCRASQGISSWLAWYQQKPEKAPKSLIYAASSLQSGVPSRFSGSGSGTDFTLTISSLQPEDFATYYCQQYNTYPRTFGQGTKVEIK
As to B5, the “Plate” value in [8] is 0.052 nM.

B6: anti-B7RP1 human monoclonal antibody 2H (antibody, V domains shown)
VH: EVQLVESGGGLVQPGGSLRLSCVGSGFTFSSYWMSWVRQAPGKGLEWVAYIKQDGSEKYYVDSVKGRFTISRDNAKNSLYLQMNSLRAEDTAVYYCARDGILWFGDIPTYWGQGILVTVSS
VL: DIQMTQSPSSLSASVGDRVTITCRASQGISNWLAWYQQKPEKAPKSLIYTASSLQSGVPSRFSGSGSGTDFTLTISSLQPEDFATYYCQQYNSYPRTFGQGTKVEIK
Take B6: the Kd in assay [10] stood at 0.33 nM; in assay [1] it was 0.089 nM. The binding result in assay [11] was “no binding”. Besides, the “fold difference in KD against 5D” value in [12] was about 10 fold. In addition, the “Plate” value in assay [8] stood at 0.043 nM. In addition, the “CHO” value in [3] amounted to 1.45 nM.

B7: anti-B7RP1 human monoclonal antibody 16H germline (antibody, V domains shown)
VH: EVQLVESGGGLVQPGGSLRLSCAASGFTFSSYWMSWVRQAPGKGLEWVAYIKQDGNEKYYVDSVKGRFTISRDNAKNSLYLQMNSLRAEDTAVYYCAREGILWFGDLPTFWGQGTLVTVSS
VL: DIQMTQSPSSLSASVGDRVTITCRASQGISNWLAWYQQKPEKAPKSLIYAASSLQSGVPSRFSGSGSGTDFTLTISSLQPEDFATYYCQQYDSYPRTFGQGTKVEIK
For B7, the dissociation constant Kd came out at 0.017 nM in assay [4], 2.7 nM in assay [5], 0.017 nM in assay [7] and 2.7 nM in assay [9]. In [8], the “Plate” value came to 0.032 nM. The “CHO” value in assay [3] turned out to be 0.523 nM.

B8: anti-B7RP1 human monoclonal antibody 15H (antibody, V domains shown)
VH: EVQLVQSGGGLVHPGGSLRLSCAGSGFTFSSYAMHWVRQAPGKGLEWVSAIGTGGGTYYADSVKGRFTISRDNAKNSLYLQMNSLRAEDMAMYYCAKSGVPLLWFGEFYWGQGTLVTVSS
VL: not shown
As to B8, the “Plate” value in assay [8] was determined as 0.036 nM.

B9: anti-B7RP1 human monoclonal antibody 5D (antibody, V domains shown)
VH: QVQLVESGGGVVQPGRSLRLSCAASGFTFSSYGMHWVRQAPGKGLEWVAVIWYDGSKKYYADSVEGRFTISRDNSKNTLYLQMNSLRAEDTAVFYCARDLNIMVWGIFDYWGQGTLVTVSS
VL: EIVLTQSPATLSLSPGERATLSCRASQSVSSYLAWYQQKPGQAPRLLIYDASNRATGIPARFSGSGSGTDFTLTISSLEPEDFAVYYCQQRNNWPWTFGQGTKVEIK
notes: Fluorescently labelled in the flow cytometry assays; also called 5D mAb; B7RP-1 5D
In the case of B9, the Kd is 0.018 nM in assay [10]; 0.0016 nM in [4]; 0.037 nM in [5]; 0.0016 nM in assay [7]; 0.037 nM in assay [9]. In addition, the binding result in [13] is “no binding”. Further, in assay [8], the “Plate” value is 0.055 nM. Further, the “CHO” value in assay [3] was determined as 1.46 nM.

For the origin of these results see patent publication US20080166352A1 (Amgen, published 2008).
